This passage reports OD450 results from CN106946990A.

Test [1] deals with Myc-GST融合蛋白 (Myc tag fused to glutathione [S-transferase]). The test is described as follows: indirect ELISA on coated Myc-GST (5 μg/mL), HRP anti-His secondary, 30 min at 90℃.
Test [2] shares this target. Put plainly: indirect ELISA on coated Myc-GST (5 μg/mL), HRP anti-His secondary, 30 min at 70℃. Background: In an ELISA, binding on a coated surface is turned into a signal by an enzyme label.
Test [3] shares this target. Put plainly: indirect ELISA on coated Myc-GST (5 μg/mL), HRP anti-His secondary, 30 min at 80℃.

B1: 针对c-Myc标签的单域重链抗体 (single-domain heavy-chain antibody against the c-Myc tag, SEQ ID NO.:1) (VHH, not shown: small tags and cut ends)
VHH: QLQLVESGGGLVQPGGSLRLSCSASGFAFNLFYMGWVRQAPGKGLEWVADIDNTGDKYYAESVEGRFTVSRDNAKKTLYLQMDSLKSEDTAQYYCLKGGCRETFSLCARGQGTQVTVSS
Take B1: the OD450 was found to be 1.1 OD450 in test [1], 1.5 OD450 in test [2] and 1.4 OD450 in test [3].
